This note sets out measurements from paper PMC11822394, “CsNAC17 enhances resistance to Colletotrichum gloeosporioides by interacting with CsbHLH62 in Camellia sinensis”.

For the data set, the target named is T1, CsNAC17 (Camellia sinensis, UniProt A0A4S4ETT7 1-357).
T1 chain: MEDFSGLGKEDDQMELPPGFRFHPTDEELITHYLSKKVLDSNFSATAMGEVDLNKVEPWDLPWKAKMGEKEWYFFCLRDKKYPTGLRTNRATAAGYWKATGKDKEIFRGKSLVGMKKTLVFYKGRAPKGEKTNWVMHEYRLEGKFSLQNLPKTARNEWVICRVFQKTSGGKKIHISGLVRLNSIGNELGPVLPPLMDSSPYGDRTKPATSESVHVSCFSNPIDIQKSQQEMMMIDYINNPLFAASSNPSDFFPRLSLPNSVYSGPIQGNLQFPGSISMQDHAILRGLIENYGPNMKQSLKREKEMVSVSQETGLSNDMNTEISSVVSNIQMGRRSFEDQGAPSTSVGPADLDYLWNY
In words: EMSA; LightShift Chemiluminescent EMSA Kit; buffer, salt, pH and temperature not stated. The note with it: protein: recombinant; tags: GST (pGEX-6p-1); chain copies: 0; label: biotin (hot probe); blunt. A general note: In EMSA bound probe runs differently from free probe, usually more slowly.

B1: ProCsRPM1-CATGTG probe (dsDNA)
DNA 1: TTTTAGACATGTGTTTCCCA
DNA 2: TGGGAAACACATGTCTAAAA
On to B1, for which the binding result is “binds”.

B2: ProCsRPM1-CACG probe (dsDNA)
DNA 1: CTACGTAGCACGGTCCTATT
DNA 2: AATAGGACCGTGCTACGTAG
Consider B2, for which the binding result is given as “binds”.
